# Measured values from patent US20070072186A1, “Methods and agents for screening for compounds capable of modulating her2 expression” (priority 2003, published 2007).
# B1: 3′ her2 UTR: naturally occurring Her2 3′ UTR, linked downstream of luciferase in reporter constructs (nucleic acid)
# DNA: TGAACCAGAAGGCCAAGTCCGCAGAAGCCCTGATGTGTCCTCAGGGAGCAGGGAAGGCCTGACTTCTGCTGGCATCAAGAGGTGGGAGGGCCCTCCGACCACTTCCAGGGGAACCTGCCATGCCAGGAACCTGTCCTAAGGAACCTTCCTTCCTGCTTGAGTTCCCAGATGGCTGGAAGGGGTCCAGCCTCGTTGGAAGAGGAACAGCACTGGGGAGTCTTTGTGGATTCTGAGGCCCTGCCCAATGAGACTCTAGGGTCCAGTGGATGCCACAGCCCAGCTTGGCCCTTTCCTTCCAGATCCTGGGTACTGAAAGCCTTAGGGAAGCTGGCCTGAGAGGGGAAGCGGCCCTAAGGGAGTGTCTAAGAACAAAAGCGACCCATTCAGAGACTGTCCCTGAAACCTAGTACTGCCCCCCATGAGGAAGGAACAGCAATGGTGTCAGTATCCAGGCTTTGTACAGAGTGCTTTTCTGTTTAGTTTTTACTTTTTTTGTTTTGTTTTTTTAAAGACGAAATAAAGACCCAGGGGAGAATGGGTGTTGTATGGGGAGGCAAGTGTGGGGGGTCCTTCTCCACACCCACTTTGTCCATTTGCAAATATATTTTGGAAAAC
# B2: SEQ ID NO: 5: first 310 nucleotides of the Her2 3′ UTR, does not contain SEQ ID NO: 1; competitor RNA (nucleic acid)
# DNA: TGAACCAGAAGGCCAAGTCCGCAGAAGCCCTGATGTGTCCTCAGGGAGCAGGGAAGGCCTGACTTCTGCTGGCATCAAGAGGTGGGAGGGCCCTCCGACCACTTCCAGGGGAACCTGCCATGCCAGGAACCTGTCCTAAGGAACCTTCCTTCCTGCTTGAGTTCCCAGATGGCTGGAAGGGGTCCAGCCTCGTTGGAAGAGGAACAGCACTGGGGAGTCTTTGTGGATTCTGAGGCCCTGCCCAATGAGACTCTAGGGTCCAGTGGATGCCACAGCCCAGCTTGGCCCTTTCCTTCCAGATCCTGGGTAC
# B3: SEQ ID NO: 1: 73-residue region (residues 468-540) from a 3′ her2 UTR, translational regulatory element TRE1; used as competitor RNA (nucleic acid)
# DNA: CTTTTCTGTTTAGTTTTTACTTTTTTTGTTTTGTTTTTTTAAAGACGAAATAAAGACCCAGGGGAGAATGGGT
# modifications: competitor RNA from UTR region, further chemistry not given here
# B4: Her2 5′ UTR: naturally occurring Her2 5′ UTR; RNA probe and competitor in UV-crosslinking (nucleic acid)
# DNA: GGCTGCTTGAGGAAGTATAAGAATGAAGTTGTGAAGCTGAGATTCCCCTCCATTGGGACCGGAGAAACCAGGGGAGCCCCCCGGGCAGCCGCGCGCCCCTTCCCACGGGGCCCTTTACTGCGCCGCGCGCCCGGCCCCCACCCCTCGCAGCACCCCGCGCCCCGCGCCCTCCCAGCCGGGTCCAGCCGGAGCCATGGGGCCGGAGCCGCAGTGAGCACC
# B5: SEQ ID NO: 29: Her2 3′ UTR variant with nucleotides 1-110 deleted at the 5′ end, in a luciferase construct (nucleic acid)
# DNA: CCTGCCATGCCAGGAACCTGTCCTAAGGAACCTTCCTTCCTGCTTGAGTTCCCAGATGGCTGGAAGGGGTCCAGCCTCGTTGGAAGAGGAACAGCACTGGGGAGTCTTTGTGGATTCTGAGGCCCTGCCCAATGAGACTCTAGGGTCCAGTGGATGCCACAGCCCAGCTTGGCCCTTTCCTTCCAGATCCTGGGTACTGAAAGCCTTAGGGAAGCTGGCCTGAGAGGGGAAGCGGCCCTAAGGGAGTGTCTAAGAACAAAAGCGACCCATTCAGAGACTGTCCCTGAAACCTAGTACTGCCCCCCATGAGGAAGGAACAGCAATGGTGTCAGTATCCAGGCTTTGTACAGAGTGCTTTTCTGTTTAGTTTTTACTTTTTTTGTTTTGTTTTTTTAAAGACGAAATAAAGACCCAGGGGAGAATGGGTGTTGTATGGGGAGGCAAGTGTGGGGGGTCCTTCTCCACACCCACTTTGTCCATTTGCAAATATATTTTGGAAAAC
# modifications: luciferase construct
# notes: Her2 3′ UTR variant with nucleotides 1-110 deleted at the 5′ end, in a luciferase construct
# What was measured:
# 48-kDa polypeptide = experiment: UV-crosslinking of 32P-labeled RNA with SKBR3 cytoplasmic extracts; type: binding; details: for UV-crosslinking of the 48-kDa polypeptide to labeled RNA: SKBR3 cytoplasmic extracts, FIG. 10A; for competition for binding of the 48-kDa polypeptide to full-length, labeled Her2 3′ UTR: FIG. 10B
# Procedure: Total protein from cancer cell lines is incubated with 10 fmoles of ^32P-UTP-labeled RNA for 1 hour at 37° C. in a final volume of 20 μl using Binding Buffer (20 mM Hepes-KOH, pH 7.5, 2.5 mM MgCl2, 100 mM KCl, 20% glycerol, 0.5 mM dithiothreitol, protease inhibitor tablets). Reaction mixtures are UV-irradiated at 254 nm for 10 minutes with a StrataLinker® 11800 (Stratagene; La Jolla, Calif.) in Costar® 96-Well Cell Culture Clusters (CORNING COSTAR Co., Cambridge, Mass.) on ice. The reaction mixtures are then treated with RNAse A (2 mg/ml) for 30 minutes at 37° C. The samples are analyzed by 12% or 10-14% Criterion™ gels (Bio-Rad Laboratories, Inc., Hercules, Calif.) by Sodium Dodecyl Sulfate-Polyacrylamide gel electrophoresis (SDS-PAGE) and are detected by autoradiography.
# To study the role of trans-acting factors in modulating interactions between 5′ and 3′ UTRs, in vitro transcripts are synthesized, labeled, and incubated with cytoplasmic extracts from SKBR3 cells. After UV-crosslinking, unprotected areas of labeled RNA are digested with RNAse A, and the remaining labeled RNA molecules are resolved on SDS-PAGE.
# Instead, a minimal binding region of […], corresponding to the nucleotide sequence from residue 490 to residue 510 of a 3′ Her2 UTR, is essential for the 48-kDa polypeptide to UV-crosslink to a Her2 3′ UTR. […] In comparison, competition with a 500-fold molar excess of nucleic acid molecules with sequences derived from the Her2 5′ UTR is ineffective in titrating out the 48-kDa polypepide.
# [1] = system: luciferase reporter gene linked to a 5′ her2 UTR; experiment: luciferase reporter constructs with her2 UTRs transfected into a panel of cell lines; type: cell-based; details: luciferase activity 48 hours after transfection
# Procedure: A luciferase reporter gene is linked to her2 UTRs to make various constructs (see FIG. 2). Each construct is transfected into a panel of cell-lines using Fugene® (Hoffmann-La Roche Inc., Nutley, N.J.), and the luciferase activity is measured 48 hours after transfection. The results are expressed as a fold-increase in luciferase activity over the repression caused by the 5′ her2 UTR linked to the luciferase reporter gene. A 5′ her2 UTR (SEQ ID NO: 6) represses translation of a luciferase reporter gene. […] The greatest modulation is observed in the mammalian cancer cell lines that over-express Her2 protein, SKBR-3 and BT-474, about 13-fold and about 10-fold, respectively, showing that the efficiency of translation of a luciferase reporter gene mRNA in Her2 positive cells is regulated by interactions of regions in the 5′ her2 UTR and the 3′ her2 UTR. Moreover, the effect is more pronounced in high Her2 expressing cells relative to low Her2 expressing cell lines, especially for breast cancer cells.
# [2] = system: capped-5′+3′ UTR-luciferase RNA; experiment: in vitro rabbit reticulocyte translation of capped reporter RNA in the presence of competitor RNA; type: biochemical; details: for inhibition of translation of capped-5′+3′ UTR-luciferase RNA relative to absence of competitor RNA: 5-fold molar excess of competitor RNA, 60 minutes at 37° C., FIG. 1
# Procedure: A 73-residue region from a 3′ her2 UTR (SEQ ID NO: 1) and an N-terminal 310-residue region from a 3′ her2 UTR (SEQ ID NO: 5) are cloned into a construct downstream of a T7-promoter. RNA encoded for by these regions is synthesized using a T7-in vitro transcription kit (Ambion, Inc.; Austin, Tex.).
# To quantitate the maximum level of translation, a capped-5′+3′ UTR-luciferase RNA (0.057 pmoles) is translated in an in vitro rabbit reticulocyte translation system for 60 minutes at 37° C. Then, a capped-5′+3′ UTR-luciferase RNA is translated in the presence of between a 5- to 500-fold molar excess of RNA from either the 73-residue region from a 3′ her2 UTR (SEQ ID NO: 1) or the N-terminal 310-residue region from a 3′ her2 UTR (SEQ ID NO: 5) under the same conditions.
# Capped, in vitro-transcribed Her2 5′ UTR-luciferase-Her2 3′ UTR (5H3H-Luc) and vector only-luciferase (Vector-Luc) are translated in the presence or absence of competitor RNA fragments derived from a Her-2 3′ UTR. Nucleic acid molecules derived from nucleotides 468-540 of a Her2 3′ UTR (468-540) and from residues 468-615 of a Her2 3′ UTR (468-615) each contain the 73-nucleotide sequence (SEQ ID NO:1) essential for suppression of 5′ Her2 UTR repression. […] The percentage of inhibition of expression is less in the presence of the 1-310 fragment with respect to the percentage of inhibition of expression in the presence of either of the nucleic acid molecules containing SEQ ID NO: 1, 468-615 and 468-540. The percentage of inhibition for the 1-310 fragment is dose-dependent, whereas even at only a 5-fold molar excess of competitor RNA conatining SEQ ID NO: 1, expression is only at 25% of the maximum level of translation.
# Ship-2 uORF = experiment: chimeric luciferase constructs with Ship-2 5′ UTR in SKBR3 cells; type: cell-based; details: in combination with a Ship-2 5′ UTR, FIG. 7
# Description: Ship-2 mRNA contains a 33 nucleotide uORF (encoding 10 amino acids) that is located 14 nucleotides upstream of the main ORF. The uORF strongly represses translation of the main ORF.
# The presence of TRE1 in the 3′ UTR, when in combination with a Ship-2 5′ UTR, increases expression of luciferase about 5-fold relative to luciferase being flanked by 3′ and 5′ Ship-2 UTRs. Luciferase expression increases when flanked by a 5′ Ship-2 UTR and a chimeric 3′ UTR, consisting of 328 residues of Ship-2 3′ UTR flanked by the 5′ and 3′ end seqeunces of the Her-23′ UTR, relative to luciferase being flanked by 3′ and 5′ Ship-2 UTRs. […] The presence of the 3′ Her2 UTR residues 1-110 (SEQ ID NO: 28) in the chimeric 3′ UTR results in a slight increase in luciferase expression relative to 3′ Ship-2 UTR. Suppression of translational repression occurs in cells with chimeric constructs expressing a Ship-2 3′ UTR containing only TRE1 (SEQ ID NO: 1) from a Her-23′ UTR.
# [3] = system: luciferase reporter gene linked to a 5′ her2 UTR; experiment: luciferase constructs with 3′ her2 UTR variants transfected into SKBR3 cells; type: cell-based; details: 48 hours after transfection
# Procedure: A luciferase reporter gene is linked to 3′ her2 UTR variants to make various constructs (see FIG. 6). Each construct is transfected into cell-lines, SKBR3 cells in particular, using Fugene® (Hoffmann-La Roche Inc., Nutley, N.J.), and the luciferase activity is measured 48 hours after transfection. The results are expressed as a fold-increase in luciferase activity over the repression caused by a 5′ her2 UTR (SEQ ID NO: 6) linked to the luciferase reporter gene (see FIG. 6). A 5′ her2 UTR represses translation of a reporter gene, such as luciferase.
molecule,measurement,setting,value
B1,UV-crosslinking of the 48-kDa polypeptide to labeled RNA,48-kDa polypeptide,crosslinks
same,Fold-increase over 5′ UTR Average,[1]; 293T,1.54 ± 1.0
same,Fold-increase over 5′ UTR Average,[1]; HeLa,2.23 ± 0.5
same,Fold-increase over 5′ UTR Average,[1]; Hs578.1,2 ± 0.5
B2,inhibition of translation of capped-5′+3′ UTR-luciferase RNA relative to absence of competitor RNA,[2],not significantly inhibited
same,"percentage of inhibition of expression, dependence on amount of competitor","[2]; competitor RNA, FIG. 9",dose-dependent
B3,"competition for binding of the 48-kDa polypeptide to full-length, labeled Her2 3′ UTR",48-kDa polypeptide; 50-fold molar excess of unlabeled competitor,prevents binding
same,UV-crosslinking of the 48-kDa polypeptide to labeled RNA,48-kDa polypeptide,crosslinks
same,inhibition of translation of capped-5′+3′ UTR-luciferase RNA relative to absence of competitor RNA,[2],about 75%
same,increase of luciferase expression relative to luciferase flanked by 3′ and 5′ Ship-2 UTRs,Ship-2 uORF,about 5 fold
B4,"competition for binding of the 48-kDa polypeptide to full-length, labeled Her2 3′ UTR",48-kDa polypeptide; 500-fold molar excess of competitor,ineffective
same,UV-crosslinking of the 48-kDa polypeptide to labeled RNA,48-kDa polypeptide,does not crosslink
B5,fold-increase in luciferase expression over 5′ her2 UTR+Luc,[3],1.7±0.9 fold
